In patent publication US20220135977:
Read-outs that look alike come from different tables or passages of the source.

Target: Influenza A/H3N2 virus strain Ark1819002 (clade 3C.2a; virus protein quantified as hemagglutinin) (Influenza A virus (H3N2)) (UniProt P03437+P03437)
Assay: filter

Sequence “GGGAGAAUUCCGACCAGAAGGCGCGAUUGUGUUGUGGUGGGUGGGCGCGCCUUUCCUCUCUCCUUCCUCUUCU [P30-10-h1-8]” has a binding signal of 2.87 amol bound.
“GGGAGAAUUCCGACCAGAAGGAACAUUUGUGGGUGGUGUGGGUGGCUGUUCCUUUCCUCUCUCCUUCCUCUUCU [P30-10-h1-9]” gave a binding signal of 832 amol bound.
Work on “GGGAGAAUUCCGACCAGAAGUAGUAGCCCGGGUGUGGGUUUAUGGUCGCCCCUUUCCUCUCUCCUUCCUCUUCU [P30-10-h1-1]” yielded a binding signal of 47.9 amol bound.
Sequence “GGGAGAAUUCCGACCAGAAGGCGCGAUUGUGGUUGUGGUGGGUGGGCGCGCCUUUCCUCUCUCCUUCCUCUUCU [P30-10-h1-2]” has a binding signal of 166 amol bound.
For “GGGAGAAUUCCGACCAGAAGUCCCCUCCCUCGUAUCGUAUGUGCGUUUGCCCUUUCCUCUCUCCUUCCUCUUCU [P30-10-h1-5]”, the binding signal was 80.3 amol bound.
“GGGAGAAUUCCGACCAGAAGGGUCGGUGUAUAAUUGUAGUUUUGUUGUUGUUGUUGUUGUUGCCUUUCCUCUCUCCUUCCUCUUCU [P30-10-h1-10]” was tested, and the binding signal was 60.7 amol bound.
Work on “GGGAGAAUUCCGACCAGAAGUAGUAGCCCGGGUGUGGGUUUAUGGCCGCCCCUUUCCUCUCUCCUUCCUCUUCU [P30-10-h1-6]” yielded a binding signal of 34.2 amol bound.
For “GGGAGAAUUCCGACCAGAAGUGUCGAUGUGUAUCUUAUUUGUUUGUUUGUUUGUUUGUUUGUCCUUUCCUCUCUCCUUCCUCUUCU [P30-10-h1-3]”, the binding signal was 37.3 amol bound.
With “GGGAGAAUUCCGACCAGAAGUAGUAGCCCGGGUGUGGGUUUAUGGUCGUCCCUUUCCUCUCUCCUUCCUCUUCU [P30-10-h1-7]” the binding signal was 17 amol bound.
“GGAGCUCAGCCUUCACUGCCAAAGUGCGAGGCAGUGUGGUGCUGUCCUACGAGUUCUAAAGUUCGUUAGGAAGGCAGCUCAACAUGUUUAACAGGCACCACCGUCGGAUCC [D12]” gave a binding signal of 0.1 amol bound.
“GGGAGAAUUCCGACCAGAAGGCUAUGGGUUGAGUUCUGUAUGGGUGGGUGCCUUUCCUCUCUCCUUCCUCUUCU [P30-10-h1-4]” gave a binding signal of 232 amol bound.
In the case of “GGAGCUCAGCCUUCACUGCCAAAAAGUUAGGCCAGCAAAUUGCGAGCUGAUCCGGUGACUGGCUACAGGAGGCCUUGUCCACGGCCGUAUUGGCACCACCGUCGGAUCC [D26(2'-F)]”, the binding signal (2'-F pyrimidines) is reported as 32.8 amol bound.
